Fewer inactive variants are shown than the library holds.
B1: TPR 5TU (parent)
chain: GGAUCUUCUCGAUCUAACAAAAAAGACAAAUCUGCCACAAAGCUUGAGAGCAUCUUCGGAUGCAGAGGCGGCAGCCUUCGGUGGCGCGAUAGCGCCAACGUUCUCAACUAUGACACGCAAAACGCGUGCUCCGUUGAAUGGAGUUUAUCAUG

Variants of: B1
Test: polymerase ribozyme fitness, log enrichment relative to wild type (log ratio); higher = more active; in vitro selection for triplet polymerase activity
Outline: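 A single round of triplicate in vitro selection, including frozen incubation at −7 °C, was applied to PCR-built, transcribed mutant libraries of each subunit of a heterodimeric triplet polymerase ribozyme. Illumina sequencing of input and output libraries retained genotypes with ≥10 input reads and ≥1 read per output. Fitness is the base-2 logarithm of genotype enrichment divided by wild-type enrichment, from inverse-variance-weighted replicate averages.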

GGAUCUUCUCGAUUUAACAAAAUAGACAAAACUGCCACAAAGCUUGCGAGCAUCUUCGGAUGCAGAGGCGGCAGCCUUCGGUGGCGCGAUACCGCGAACGUUCUCAACUAUGACACGCAAAACGCGUGCUACGUUGAAUGGAGUUUAUCAUG and GGAUCUUCUCGAUUUAACAAAAAAGACAAUUCUGCCACAAAGCUUGAGAGCAGCUUCUGAUGCACAGGCGGCAACCUUCGGUGGCGCGAUAGCGCCAACGUUCUCAACUAUGACACGCAAAACGCGUGCUCCGUUGAAUGGAGUUUAUCAUG cannot be ordered by “polymerase ribozyme fitness (log ratio)” value: ≤ -4.2 for the first, ≤ -4.2 for the second.

GGAUCUUCUCGAUUUAACAAAAAAGACAAAUCUGCCACAACGCUUGAGAUCCUCUUCGGAUGCAGAGGCGGCAGCCUUCGGUGACGCGAGCGCGCCAACGUUCUCAACUAUGACAUGCAAAACGCGUGCUCCGUUGAAUAGAGUUUAUCAUG and GGAUCUUCUCGAUUUAACAAAAAAGACAAAUGUGCCACAAAGCUUGAGAGCAUCUUCGGAUGCAGAGGAGGCAGCCUUCGGUGGCGCGAUAGCGCCAACGUUCUCAACUAUGACACGCAAAACGCGUGCUCCGUUGAAUGGAGUUUAUCAUG cannot be ordered by “polymerase ribozyme fitness (log ratio)” value: ≤ -4.2 for the first, ≤ -4.2 for the second.

GGAUCUUCUCGAUUUAACAAAAAAGACAAAUCUGCCACAAAGCUUGAGAGCAUCUUCGGAUGCAGAGGCGGCAGCCUUCGGUGGCGCGAUAGCGCCAACGUUCUCAUCUAUGACACAAAAAACGCGUGCUCCGUUGAAUGGGGUUUAUCAUG and GGAUCUUCUCGAUUUAACAAAAAAGACAAAUCUGCCACAAAGCUUGAGAGCAUCUUCGGAUGCAGCGGCGGCAGCCUGCGGUGGCGCGAUAGCGGCAACGUUCUCAAUUAUGACACGCAAAACGCGUGCUCCGUUGAAUGGAGUUUAUCAUG cannot be ordered by “polymerase ribozyme fitness (log ratio)” value: ≤ -4.2 for the first, ≤ -4.2 for the second.

First: GGAUCUUCUCGAUUUAACAAAAAAGACAAAUCUGUCACAAAGCUUGAGAGCAUCUUCGGAUGCAGAGGCGGCAGCCUUCGGUGUCGCGAUAGCGCCAACGUUCUCAACUAUGACACGCAAAACGCGUGCUUCGUUGAAUGGAGUUUAUCAUG
Second: GGAUCUUCUCGAUUUAACAAAAAUGACAAAUCUGCCACAAAGCUUGAGAGCAUCAUCGGAUGCAGAGGCCGCAGCCUUCGGUGGCGCGAUAGCACCAACGUUCUCAACUAUGACAGGCAAAACGCGUGCUCCGUUGAAUGGAGUUUAUCAUG
The “polymerase ribozyme fitness (log ratio)” value of the first is higher: -3.79 for the first, ≤ -4.2 for the second.

Going from GGAUCUUCUCGAUUUAACAAAAAAGACAAAUCUGCCACAAAGCUUGAGAGCAUCUUCGGAUGCAGAGGCGGCAGCCUUCGGUGGCGCGAUGGCGCCAACGUUCUCAACUAUGACACGCAAAACGCGUGCUCCGUUGAAUGGAGUUUAUCAUG to GGAUCUUCUCGAUUUAACAAAAAAGACAAAUCUGCCACACAGCUUGAGAGCAUUUUCGGAUGAAGAGGCGGCAGCCUUCGGUGGCGCGAUAGCGUCAACGUUCUCCACUAUGACACGCAAAACGCGUGCUCCGUUGAAUGGAGUUUAUCAUG, the “polymerase ribozyme fitness (log ratio)” value falls from -3.98 to ≤ -4.2.

GGAUCUUCUCGAUUUAACAAAAAAGACUAAUCUGCCACAAAGCUUGAGAGCCUCUUCGGAUGCAGAGGCGGCAGCCUUCGGUGGCGCUAUGGCGCUAACGUUCUCAACUAUGACACGCAAAACGCGUGCUCCGGUGAAUUGAGUUUAUCAUG and GGAUCUUCUCGAUUUAACAAAAUAGACAAAUCUGCCACAAAGCUUGAGAGCAUCUCCGGAUGCAGAGGCGGCAGCCUUCGGUGGCGUGAGAGCGCCAACGUUCUCAACUAUGACACGCAAAACGCGUGCUCCGUUGAAUGGAGUUUAUCAUG cannot be ordered by “polymerase ribozyme fitness (log ratio)” value: ≤ -4.2 for the first, ≤ -4.2 for the second.

GGAUCUUCUCGAUUUAACAAAAAAGACAAAUCUGCCACAAAGCUUGAGAGCAUCUUCGGAUGCAGAGGCGGCAGCCUUCGGUGGCGCGAUAGCGCCAACGUUCUCAACUAUGACACGCAAAACGCGUGCUCCGUUGAAUGGAGUUUAUCCUG and GGAUCUUCUCGAUUUAACAAAAAAGACAAAUCUGCCACCAAGCUUGAGAGCAUCUUCGGAUGCAGAGGCGCCAGCCUUCGGUGGUGCGAUAGCGCCGACGUUCUCAACUAUGACACGCAAAACGCGUGCUCCGUUGAAUGGAGUUUAUCAUG cannot be ordered by “polymerase ribozyme fitness (log ratio)” value: ≤ -4.2 for the first, ≤ -4.2 for the second.

First: GGAUCUUCUCGAUUUAACAAAAAAGACAAAUCUGGCACAAAGCUUGAGAGCAUCUUCGGAUGCAGAGGCGGCAGUGUUCGGUGGCGCGAUAGCGUCAACGUUCUCAACUAUGACACGCAAAACGCGUGCUCCGUUGAAUGGAGUUUAUCAUG
Second: GGAUCUUCUCGAUUUAACAAAAAAGACAAAUCUGCCACAAAGCUUGAGAGCAUCUUCGGAUGCGGAGGCGGCAGCCUUCGGUGGCGCGAUAGCGCCAACGUUCUCAACUAUGACACGCAAAACGCGUGCUCCGUUGAAUGGAGUUUAUCAUG
The “polymerase ribozyme fitness (log ratio)” value of the first is higher: -3.81 for the first, -4.17 for the second.

GGAUCUUCUCGAUUUAACAAAAAAGACAAAUCUGCCACAAAGCUUGAGAGCAUCUUCGGUUGCAGAGGCGGCAGCCUUCGGUGGCGCGAUAGCGCGAACGUUCUCAACUAUGACACGCAAAACGCGUGCUCCGUUGAAUGGAGUUUAUCAUG and GGAUCUUCUCGAUUUAACAAAAAAGACAAAUCUGCCACAAUGCUUGAGAGCAUCUACGGAUGCAGAGGCGGCAGCCUUCGGUGGCGCGAUAGAGCCAACGUUCUCAACUAUGACACGCAAAAAGCGUGCUCCGUUGAAUGGAGUUUAUCAUG cannot be ordered by “polymerase ribozyme fitness (log ratio)” value: ≤ -4.2 for the first, ≤ -4.2 for the second.

For GGAUCUUCUCGAUUUAACAAAAAAGACAAAUCUGCCACAAUGCUUGAGAGCAUCUUCGGCUGCAGUGGCGGCAGCCUUCAGUGGUGCGAUAGCGCCAACGUUUUCAACUAUGACACGCAAAACGCGUGCUCCGUUGAAUGGAGUUUAUCAUG, the “polymerase ribozyme fitness (log ratio)” value was ≤ -4.2.
